Columns and labels:
[1] = molecular target: T1, human TfR ectodomain fused to a mouse IgG1 Fc fragment (human, UniProt P02786 89-760); assay: SPR, kinetic
T1 construct: extracellular domain; ectodomain fused to the N-terminal end of the Fc, made in-house; not shown: mouse IgG1 Fc fragment
Method: Binding properties of some VHHs were also evaluated using Surface Plasmon Resonance (SPR) experiments. The human, mouse and rhesus monkey TfR (having respectively GeneBank number NM_003234.2, NM_011638, NC_041755.1) ectodomains were fused to the N-terminal end of a mouse IgG1 Fc fragment and the recombinant proteins were produced and purified in-house. Interaction of VHHs with the receptors was tested using a Biacore T200 (GE Healthcare). Receptors were immobilized on an HC 1500M or a CM5 sensor chip (Xantec) either directly or on an anti-mouse IgG previously immobilized. VHHs were injected over flowcell by using the single-cycle kinetic or the multiple-cycle kinetic methods.

[2] = molecular target: T2, human transferrin receptor (hTfR) fused to EGFP, on CHO cells (human, UniProt P02786 1-760); assay: apparent Kd, flow cytometry, CHO cells
T2 construct: whole, on cells; also called human TfR; CHO-hTfR-EGFP; not shown: EGFP from pEGFP-C1 vector, fused to the N-terminal (intracellular) end of hTfR
T2 sequence (P02786 whole entry, the tested form may be a part): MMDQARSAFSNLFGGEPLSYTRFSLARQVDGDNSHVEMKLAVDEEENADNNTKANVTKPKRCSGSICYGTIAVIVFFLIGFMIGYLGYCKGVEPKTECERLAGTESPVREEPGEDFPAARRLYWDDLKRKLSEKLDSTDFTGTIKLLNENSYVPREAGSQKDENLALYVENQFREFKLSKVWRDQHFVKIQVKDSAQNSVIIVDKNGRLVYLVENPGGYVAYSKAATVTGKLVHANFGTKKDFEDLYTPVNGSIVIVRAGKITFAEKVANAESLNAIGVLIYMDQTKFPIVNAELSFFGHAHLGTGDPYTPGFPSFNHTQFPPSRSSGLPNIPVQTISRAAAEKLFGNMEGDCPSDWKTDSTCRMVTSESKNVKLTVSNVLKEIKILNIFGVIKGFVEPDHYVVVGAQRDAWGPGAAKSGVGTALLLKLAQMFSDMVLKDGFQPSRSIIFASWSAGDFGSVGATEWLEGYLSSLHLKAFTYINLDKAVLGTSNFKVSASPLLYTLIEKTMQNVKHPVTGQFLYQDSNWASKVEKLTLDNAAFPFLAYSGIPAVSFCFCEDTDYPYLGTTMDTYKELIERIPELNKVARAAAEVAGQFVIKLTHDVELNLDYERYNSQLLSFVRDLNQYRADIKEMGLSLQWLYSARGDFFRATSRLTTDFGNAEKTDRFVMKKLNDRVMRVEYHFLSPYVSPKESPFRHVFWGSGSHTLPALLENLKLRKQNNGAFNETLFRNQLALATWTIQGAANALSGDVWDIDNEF
Method: (§1) The binding properties of VHHs with affinity for the TfR from different species (i.e., human (h), mouse (m) and rhesus monkey (rh)) were tested using flow cytometry, and apparent affinities (Kd app) were determined. All experiments were performed in 96 well plates using 2×10⁵ cells/well, at 4° C. with shaking. CHO cell lines expressing the hTfR, mTfR or rhTfR fused to EGFP were saturated with PBS/BSA 2% solution during 30 min to avoid nonspecific binding, followed by incubation with purified VHHs at increasing concentrations for 1 hr. After one wash in PBS/BSA 2%, cells were incubated for 1 hr with an anti-6His tag antibody (mouse), washed twice with PBS/BSA 2%, and incubated for 1 hr with an Alexa647-conjugated anti-mouse secondary antibody. After two last washes in PBS/BSA 2%, cells were fixed by incubation for 15 min with PBS/PFA 2%, washed once with PBS and finally resuspended in PBS. Fluorescence levels were assessed using an Attune NxT flow cytometer (Thermo Fisher Scientific). Experimental data were fitted with GraphPad Prism® software using a nonlinear fit to determine the apparent Kd constants. […] Table 5 hereafter summarizes apparent Kd obtained for the tested VHHs.

[3] = molecular target: T3, mouse transferrin receptor (mTfR) fused to EGFP, on CHO cells (mouse, UniProt Q62351 1-763); assay: apparent Kd, flow cytometry, CHO cells
T3 construct: whole, on cells; also called mouse TfR; CHO-mTfR-EGFP; not shown: EGFP
T3 sequence (Q62351 whole entry, the tested form may be a part): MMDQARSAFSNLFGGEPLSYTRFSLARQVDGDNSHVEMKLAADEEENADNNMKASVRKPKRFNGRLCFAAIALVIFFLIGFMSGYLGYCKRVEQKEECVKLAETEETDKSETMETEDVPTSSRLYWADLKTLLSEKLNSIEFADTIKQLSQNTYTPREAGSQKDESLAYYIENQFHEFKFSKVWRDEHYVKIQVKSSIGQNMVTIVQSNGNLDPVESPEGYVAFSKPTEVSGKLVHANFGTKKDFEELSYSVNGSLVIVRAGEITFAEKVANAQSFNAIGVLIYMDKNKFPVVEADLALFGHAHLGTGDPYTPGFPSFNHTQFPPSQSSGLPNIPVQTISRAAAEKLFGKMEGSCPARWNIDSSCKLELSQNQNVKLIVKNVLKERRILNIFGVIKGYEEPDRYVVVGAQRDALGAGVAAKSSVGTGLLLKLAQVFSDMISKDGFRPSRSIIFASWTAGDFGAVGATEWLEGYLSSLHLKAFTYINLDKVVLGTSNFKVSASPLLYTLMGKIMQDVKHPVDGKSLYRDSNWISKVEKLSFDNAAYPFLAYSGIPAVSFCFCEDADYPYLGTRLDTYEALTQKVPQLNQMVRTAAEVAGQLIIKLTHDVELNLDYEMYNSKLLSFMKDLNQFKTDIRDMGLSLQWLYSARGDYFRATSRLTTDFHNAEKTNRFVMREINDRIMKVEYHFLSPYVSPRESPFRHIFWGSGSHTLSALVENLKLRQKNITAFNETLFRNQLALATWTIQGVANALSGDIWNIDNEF
Method: as §1

[4] = molecular target: T4, rhesus monkey transferrin receptor (rhTfR) fused to EGFP, on CHO cells (rhesus monkey); assay: apparent Kd, flow cytometry, CHO cells
T4 construct: whole, on cells; also called rhesus monkey TfR
Method: as §1

T1 sequence (P02786 89-760): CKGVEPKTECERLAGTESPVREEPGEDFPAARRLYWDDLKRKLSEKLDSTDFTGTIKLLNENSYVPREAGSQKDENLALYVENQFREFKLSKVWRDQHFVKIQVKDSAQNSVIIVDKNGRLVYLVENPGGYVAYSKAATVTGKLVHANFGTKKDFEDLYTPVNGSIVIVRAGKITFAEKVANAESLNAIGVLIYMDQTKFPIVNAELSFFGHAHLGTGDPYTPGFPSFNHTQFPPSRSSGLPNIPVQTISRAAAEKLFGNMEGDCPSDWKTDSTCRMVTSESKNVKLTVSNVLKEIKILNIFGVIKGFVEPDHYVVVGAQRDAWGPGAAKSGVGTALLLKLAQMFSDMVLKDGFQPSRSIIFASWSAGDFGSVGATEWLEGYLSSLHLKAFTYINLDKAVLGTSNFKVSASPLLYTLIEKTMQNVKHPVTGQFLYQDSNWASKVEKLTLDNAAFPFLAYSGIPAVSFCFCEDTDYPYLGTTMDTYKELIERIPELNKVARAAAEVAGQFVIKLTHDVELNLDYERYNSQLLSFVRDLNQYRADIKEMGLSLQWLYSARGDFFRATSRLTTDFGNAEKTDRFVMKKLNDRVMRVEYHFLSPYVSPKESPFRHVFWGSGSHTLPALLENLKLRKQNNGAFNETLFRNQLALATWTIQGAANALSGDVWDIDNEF

Binder	Kd [1] [nM]	koff [1] [s⁻¹]	kon [1] [M⁻¹ s⁻¹]	Kd [2] [nM]	Kd [3] [nM]	Kd [4] [nM]
C5^V13h20 (VHH) VHH: EVQLVESGGGVVQPGGSLRLSCAASGTDFSINFIRWYRQAPGKGLEFVAGFSATGNTNYADSVKGRFTISRDNAKNAVYLQMNSLRPEDTAVYYCYMLDKWGQGTQVTVSS	4.55	0.00357	786000	3.8	246	549
C5^h9 (VHH) VHH: EVQLVESGGGVVQPGGSLRLSCAASGTDFSINFIRWYRQAPGKGLEFVAGFTATGNTNYADSVKGRFTISRDNAKNTLYLQMNSLRPEDTAVYYCYMLDKWGQGTQVTVSS	10.6	0.00582	549000	6.1	431	493
C5^h20 (VHH) VHH: EVQLVESGGGVVQPGGSLRLSCAASGTDFSINFIRWYRQAPGKGLEFVAGFTATGNTNYADSVKGRFTISRDNAKNAVYLQMNSLRPEDTAVYYCYMLDKWGQGTQVTVSS	0.985	0.00105	866000	4.1	22	40
C5^h22 (VHH) VHH: EVQLVESGGGVVQPGGSLRLSCAASGTDFSINFIRWYRQAPGKGREFVAGFTATGNTNYADSVKGRFTISRDNAKNTLYLQMNSLRPEDTAVYYCYMLDKWGQGTQVTVSS	8.96	0.00906	1.5e+06	4.9	602	755
VHH A16 (C5^V16) (VHH) VHH: EVQLVESGGGVVQPGGSLKLSCVASGTDFSINFIRWYRQAPGKQREFVAGFTATGNTNYADSMKGRFTISRDNTKNAVYLQIDSLKPEDTAVYYCYILDKWGQGTQVTVSS	14.5	0.00577	459000	4.7	131	425
B8^V25 (VHH) VHH: EVQLVESGGGVVQPGGSLRLSCAASGEIFSINFMRWYRQAPGKQREWVAAFTRDGSTNYPDSAKGRFTISRDNAKNTVYLQIDSLKPEDTAVYYCYMLDTWGQGTQVTVSS	–	–	–	14	2350	425
B8^V28 (VHH) VHH: EVQLVESGGGVVQPGGSLRLSCAASGEIFSINFMRWYRQAPGKQREWVAGFTRDGSTFYPDSAKGRFTISRDNAKNTVYLQIDSLKPEDTAVYYCYMLDTWGQGTQVTVSS	–	–	–	31	2500	755
B8^V30 (VHH) VHH: EVQLVESGGGVVQPGGSLRLSCAASGEIFSINFMRWYRQAPGKQREWVAGFTRDGSTNYPDSAKGRFTISRDNAKNTVYLQIDSLKPEDTAVYYCYMQDTWGQGTQVTVSS	–	–	–	24	3320	505
A9a (VHH) VHH: QVQLVQSGGGLVQAGGSLRLSCAASGSIFLINDMGWYRQAPGKQRELVAVRGGSTKYGDSVKGRFTISRDDAKNTVYLQMNSLKPEDTAVYYCHRESGLGSSEYWGQGTQVTVSS	–	–	–	1860	841	965
B4a (VHH) VHH: EVQLVESGGGLVQAGGSLRLSCTASGRTVSNYRMGWFRQTPGKEREFVAAIAWAGGSLTYADSVKGRFTISRDNAKNTVYLQMNSLEPTDTAVYYCKGSRIFPTRDYWGKGTQVTVSS	–	–	–	692	409	479

— US20230414780A1 (VECT HORUS, published 2023)
